Assay [1] deals with APLNR(F233)-cpGFP (human) (UniProt P35414).
The target in assay [2] is APLNR(K235)-cpGFP (human) (UniProt P35414).
Assay [3] concerns the target APLNR(K235)-cpGFP expressed in zebrafish embryos (human) (UniProt P35414).
For assay [4] the target is unchanged. This is another data set of the same source.
Assay [5] has the same target. The source holds these as a separate data set.

The values below come from PMC12280157.

In the case of QRRCMPLHSRVPFP [Apela(19-32)], the EC50 of the increase of cpGFP fluorescence (conformational change of the biosensor), stable HEK293T cells, 37 °C in assay [1] was determined as 7 nM; in assay [2], 8 nM.

As to DKHGTKHDFLNLRRKYRRHNCPKKRCLPLHSRVPFP (ligand) [zebrafish Apela], the cpGFP fluorescence intensity of the biosensor in zebrafish embryos at 6 hpf, after heat shock-induced ubiquitous apela overexpression, against wildtype siblings in assay [3] worked out at 27 % increase.

B1: zebrafish Apelin (ligand)
chain: GPMASTEHSKEIEEVGSMRTPLRQNPARAGRSQRPAGWRRRRPRPRLSHKGPMPF
In the case of B1, in assay [3], the cpGFP fluorescence intensity of the biosensor in zebrafish embryos at 6 hpf, after heat shock-induced ubiquitous apln overexpression, against wildtype siblings came to 27 % increase. In addition, the cpGFP fluorescence intensity of the biosensor in intersegmental vessels of zebrafish embryos at 28 hpf, after heat shock-induced apln overexpression, against control siblings in assay [4] is 250 % increase. Moreover, in assay [5], the cpGFP fluorescence intensity of single cells at 1 to 5 cell distances from an apln-expressing cell, zebrafish embryos at 6 hpf; reduction against distance 1 was determined as 23 % reduction.
